Measured values reported in the DeepSol protein solubility set.

Experiment: soluble on expression in E. coli; label from the status in PepcDB or PDB records

Soluble on expression in E. coli, not soluble:
MGSDKIHHHHHHMSPDVYLQIFETRRPQLLRLAYRMLGSHAEAEDVVQEAWIRWQAADQAQIAIPAAWLNRVVSRLCLDLMRSARHRRESYIGPWLPEPLIEEEDADHRPDNLTLSLMMALERLSPLERAAFLLHDVFGQSFDEVALALDRSPSAARQLAVRARAHVHIDRPRYKVEREAAEGLTRAFFEACKTGDAAVLSGLLAEDAVLHSDGGGKVYNLLNVIVGAQKLLRMFTSLSRKRGDEMEFVQFTLIDALPGYVWRMGDQIQTTALEVEDGRITRVYTTRNPDKLTRIRLN
MGSDKIHHHHHHMSQLLRKPERAEISKGVTLVHDVTADNASLEYVSFKALDLSQGATYSETLENKECCIVVVTGKVHVTDHEVTFENIGTRESVFEKKPTDSVYVSNNQTFSIEAVTGARVALCYAPSKNQLPTKLIKAEDNGVEHRGKGNNQRMVHNILPDSDPSANSLLVVEVFTESGNWSSYPPHKHDRDLLPEESLLEETYYHEVNPKQGFVFQRVYTDDRSLDETMTVENENMVIVPKGYHPVGVPEGYASYYLNVMAGPKRIWKFFNDPAHEWIIE
MGSDKIHHHHHHMSRKSNAFSGSAAGLQHPDGRNDSGQKQQMSSPAALLQSDTLGSRLTSRGDLTSFFMELTAEIGADSYMLVAIVHDQDRNDARIVSSNWIFDAIELIGKRLIASLAQGALTVAPGIRPRPLVAARAPDADGLVSGEEARLLDVLGHAEIYSLRLNVGRQRLFALFSAATSGQIDQPALMKAQLKCCYALSHIPQLIAAAAMQDPLSDRERECLFWVSEGKTTDEVAVILGVSSNTVNSYITHAIQKFAASNRAMAIATAIRSGII
MGSDKIHHHHHHMSRVETIINELSLIASNPRKAMEDYKKETGKGAVGIMPVYAPEELVHAAGFLPMGIWGGQKSISKARTYLPPFACSIMQSVMEMQLEGVYDDLEAVIFSVPCDTLKCLSQKWKGKSPVIVFTHPQNRKLEAANKFLVEEFKLVREKLEKILNVKITDEAINNSIEVYNENRKVMREFSDIAGQYSKTISAAARHAVIKARFFMEKSKHTAMVRELINELKAMPAEECGKKVVLTGIMAEPNEVLDILTENGFTVVADDLAQESRQFRLDVPAGTDPLYRLAEWWQQFDGCALATNVKKPRGQMLMDMVKKYDADAVIVCMMKFCDPEEFDYPIYYSQFEEAGIKSLYIEIDQESTSFEQIKTRVQSFGEML
MGSDKIHHHHHHMSSEEDYFDELEYDLADEVNEEKEDIQTKKLTTVNCQTEKFNPFEILPESIELFRTLALISPDRLSLSETAQILPKIVDLKRILQQQEIDFIKLLPFFNEIIPLIKSNIKLMHNFLISLYSRRFPELSSLIPSPLQYSKVISILENENYSKNESDELFFHLENKAKLTREQILVLTMSMKTSFKNKEPLDIKTRTQILEANSILENLWKLQEDIGQYIASKISIIAPNVCFLVGPEIAAQLIAHAGGVLEFSRIPSCNIASIGKNKHLSHELHTLESGVRQEGYLFASDMIQKFPVSVHKQMLRMLCAKVSLAARVDAGQKNGDRNTVLAHKWKAELSKKARKLSEAPSISETKALPIPEDQPKKKRAGRKFRKYKEKFRLSHVRQLQNRMEFGKQEQTVLDSYGEEVGLGMSNTSLQQAVGATSGSRRSAGNQAKLTKVMKHRISEANQQADEFLISLGHNTEQPNLSPEMVQMHKKQHTNPEEETNWFSGHG
MGSDKIHHHHHHMSSHLAHGMGTEPVEPDWPPLTEAEVADVVGPSRVVWRSPRPLSAAAVVERGGRRLFVKRHHLSVRTPEGLAEEHAFLRHLRERGAPVVEVLDVATRQEWVYEVHSAGLGTDLYRDDLSWSPFRSSTHARAAGAALARLHLAADGFEAPRRIPQPLVASFTIFAADDPGTALERYVAERPALAGALADHPWRADTRRVLLPLFERLAPHLPLLEPLWTHNDWHASNLLWDASGEVSTVLDFGMSDRTTAVHDLATAIERNAVQWLQPGFPVREQDVDALLDGYQSVRPLTVSESAALPELLPLVHAEFALSEMGYFHGITGSAENTRLAYAYLVDHAEWFTGDAGSHLVDRVRHRAAAAPKPPPAGRPLSDASS
MGSDKIHHHHHHMSSSGKVIVVGAGIVGLATAWHLQEHGFEVSVLDRDGVAAGSSWGNAGWLAPAKTIPLSEPGLWTYGPKELFNPVSPMHMPLRVDPKLWLFLAQFMAQAFQRKWDSTMADLTEIDKVALEAFDELSIGGVEGLTHEGPFVIGFEEERQSAGFRKEIDGVSRHGQKVEMSRLENPQELAPMLNEQIQVAYRLEGQRFIEPGPYVQSLADAVVKRGGVIRAGAEVVHVAKGDRPAVILADGSREEADKVVVATGAWLPGLTREYGVKTLVQAGRGYSFSVATDIPAKHSVYLPHHRMACTPYEGRFRIAGTMEFRGPDEPFQQGRVDAIVSQAKKVMRGIDFNDRQDEWVGSRPVTPDGRPLIGQTKAENIYVAGGHGMWGVVLGPATGKYLAELMATGNTNPIIKPFDPLR
MGSDKIHHHHHHMSTIIQNTLAPKVQNQLIHHLPALEQAELLSQAKLVQLNFADLLCQPGESYQYVYFPLTAFISLIAKLPKHPALEMGLIGYEGMLGATTLLSTRQVPSEAIIQGSGKAWRIPIATFEDLLAQSSSLRQILETYLYQLLCQLSQNAVCAHFHSVESRLARWLLMSHDRIQTNELFLTHQFLSDMLGVRRSSITEAAGELQASGCISYNRGRLYILDRQGLLARCCSCYHLMRT
MGSDKIHHHHHHMSTTEIVKEAESRHDFALIANWIQPQSKVLDLGCGNGSLLSFLREKLGVKGYGVDKDDDNVLACIGHGVNVIQMDLEAGLAGFDSLSFDYVILSQTLQAMVNTEGVLREMLRVGKQGIITFPNFGYWRHRIQLMAGHMPVSDNIPHQWYNTPNLHLCTIDDFEALCDKMNIRITDRIVINEGNTVSFMPNLFGSLAIYRFEQAAWPVSY
MGSDKIHHHHHHMSVFLRNAWYMACWSHEVPEGGFLARRLLDKPWVIWRKADGTPVIMADRCPHRFVPLSRGQRDGDMMRCGYHGLAFSSSGGCVHNPFTDEALPLARVEVLPVVEKHTGLWFWPGDADRADPALIPDFGFLDVERPLHRGHLKMDAGYELVTDNLMDLSHAEFIHRDSFGVNGSLLTCGQHEVVQDEGGAIWNNWTMPDSEPPSWAVAMLPEGARTDQWLHMRWNAPSCLALFLGLARSGTDRKDMVVPPMADPHILTPETVTSTHYFYTHEPTPEAHALLEKAFLEEDHPMLHAQQEAMGSADFWDLRPVVLPSDAGAIRVRRRMMQLRRAEAGLEEEAAA
MGSDKIHHHHHHMSVHSEVLHALLKDPFIQKLIDAEPVFWANSGKKEGPLPRADEWATEIAEAEKRMQRFAPYIAEVFPETKGAKGIIESPLFEVQHMKGKLEAAYQQPFPGRWLLKCDHELPISGSIKARGGIYEVLKYAENLALQEGMLQETDDYRILQEERFTGFFSRYSIAVGSTGNLGLSIGIIGAALGFRVTVHMSADAKQWKKDLLRQKGVTVMEYETDYSEAVNEGRRQAEQDPFCYFIDDEHSRQLFLGYAVAASRLKTQLDCMNIKPSLETPLFVYLPCGVGGGPGGVAFGLKLLYGDDVHVFFAEPTHSPCMLLGLYSGLHEKISVQDIGLDNQTAADGLAVGRPSGFVGKLIEPLLSGCYTVEDNTLYTLLHMLAVSEDKYLEPSALAGMFGPVQLFSTEEGRRYAQKYKMEHAVHVVWGTGGSMVPKDEMAAYNRIGADLLKKRNGK
MGSDKIHHHHHHMSVKILFKNATVFPITSRPFKGDVLVSNGKVEKVGENIEDPDAEIVDLTGKFLFPGFVDAHSHIGLFEEGVGYYYSDGNEATDPVTPHVKALDGFNPQDPAIERALAGGVTSVMIVPGSANPVGGQGSVIKFRSIIVEECIVKDPAGLKMAFGENPKRVYGERKQTPSTRMGTAGVIRDYFTKVKNYMKKKELAQKEGKEFTETDLKMEVGEMVLRKKIPARMHAHRADDILTAIRIAEEFGFNLVIEHGTEAYKISKVLAEKKIPVVVGPLLTFRTKLELKDLTMETIAKLLKDGVLIALMCDHPVIPLEFATVQAATAMRYGAKEEDLLKILTVNPAKILGLEDRIGSIEPGKDADLVVWSGHPFDMKSVVERVYIDGVEVFRR
MGSDKIHHHHHHMSVVNKIIGVCRFSYLGLGGFRINEAGAEEAAKALYAADRMTLRFAYFETICLPSLAAQTDSDFTFVALIADTMPLPFRQRLKRLTETYPFLRIAVLESTGPYNSTRRAFSRGLDGQETDFITGFRLDDDDAVSVDYIARTREAADTLITLGWATKDDPAAVCFHRGIYWDMKRPDAPFWDYSEIQPLGLASAMVHHRDSRQNIYRWNHRKLASKVRCWTDPSDVMFLRTLHDHNDSGRVMPRDAEQIPDEQARRLLKDRFGLNPKRLLSTMDRVHGGTDAARQWAAETREDPFGKDGDA
MGSDKIHHHHHHMSYDEAFKTLLISSNAKLNLELNHLVIKQDENIAKLFLKDINIIVLESLQISISSALFNAFAKYKIILLTCDETHSINGVFTPFLGHFQSAKIAKEQMNVSAQKKAILWQKIIKNKILNQAFILKKHNKIEQSNELINLAKKVSLNDSKNIEAVAAALYFKTLFGTSFSRDELCFENSALNYGYAIIRACIIRAVCISGLLPWLGIKHDNIYNSFALCDDLIEVFRASVDDCVLKLKGESEFLSKDDKRALIGNLQSKINFDGQNYPLNRAINHYVANFKNALLYEDELKIVKFDD
MGSDKIHHHHHHMSYLTEKLREEKVFKDPVHGYVHVSDKIIWDLIATKEFQRLRRIHQLGTTSLTFHGAEHSRFNHSLGVYEIVRQIIDVTFANEPQLDPEERMVALCAALLHDLGHGPFSHAFEKVFGTDHESYTQEIIIGDTEVNKILMRAGEEFPLKVAAIIKKNYPNQTLVKLISSQIDADRMDYLLRDAYYTGVSYGKFDLERILRVLRPSPDGNGVIVKYSGMHAVEDYIMSRYQMYQQVYFHPVSRSGEVLLWKILERAKKLYCAGYEFQATPIQVLPFFLNEVSLKDYIVLDDIVLMYYFSIWQEEEDPILSDLCSRFLNRRLLRYINYDPKEDAELYAELKGLLEKADIDPSYYLVIDSSSDLPYDYYLPGVGSGKDPIKLLMGNGELRELSTESPVVEAIGRERRTDIKLYYPLDFIESGHVEEAITERMIALIHAHSLKEK
MGSDKIHHHHHHMTAIRVTITQVKGSAPRDTGTSMLVFADRIEGTIGGGALEWEAMRLARDMLRNGTSVTTHTFPLGPALGQCCGGVVKLELQAATQWKGVEKTPIWIWGAGHVGRAIIHTLSPFSALDLSWIDTAADRFPADIPNDTHRLIATDPPRLMPHAPPNAHHLIATYSHDIDLALCHAALTHGFASAGVIGSATKWARFRKRLGQMGHSGAQISRIMCPIGDPGLGKHPQAIAIGVAARLLGEQMLQESAQHLKDVDHGGT
MGSDKIHHHHHHMTAPTAQSMQAQPIHARLMNGEVLSQDDATAFMREVMSGDMSGVRMAAALAALRVRGETPEEIAGFAQAMRESAVTVKVRPRDVLMDVVGTGGDGAHTFNISTTTAFVLAGAGVPIAKHGNRAASSRAGSADVLEALGVNLDASPEVIQEAIDTLGVGFMFARNYHPALRHAAPVRSDLAARTVFNILGPLSNPAGATHLVVGVFRADLTRTLAEALRHLGAKGATVVYGDGLDEFTVCGPNTVSGLRDGEIIDRTMHPEEFGVDLHPKTAIVGGSPAENAEITHALLTGGGTPAQKDIVALNAGAALRTAGRVGTIREGVEQAREVMKGGQGWEMLQKYGALTKR
MGSDKIHHHHHHMTARHSDCVHCLMRGQSIFAGLSREEVCELGMDVQDIHVPAGTTIYHEGDPAQYAYTLRQGGIKLVKSLPNGHAQIVRLLHHGDLLGFEGLRTDRHRHSAITLTGTDLCRLELRALDALSQRLPAVREAIFARWQQALQEAEDRIVELGAKKADARLATFLCQWVGAYPQQRAAPFPLTRQDLGEFLGLSTEHVSRIMADLKRHRLLHEHKGQIEIPDPQNLFLYASSDGTRA
